# Laboratory results as given in the RNAGym collection of RNA variant scans (doi:10.7554/elife.90254).
# B1: OR4K15 (parent)
# chain: GUUAACGGUCAUAGGCCAUGGAAACUAGGAGCACCAUUUCGCUGCCAGUGAAGAAAUGAACAAAGAAAAUCUGGGCCAGGCAGGCAUCAAAAGAAAUAGUCUUGCGCUCAACCAGAAAGUCUGUAAUCAUUUUAAGGGUA
# Variants of: B1
# Experiment: self-cleavage, relative activity (ratio to wild type); higher = more cleavage; in vitro, sequencing; the parent is a self-cleaving ribozyme
row,Variant,self-cleavage
1,A64G A90U,1.58
2,A64G A90G,1.13
3,A67U A69G,1.13
4,A67G A98U,1.26
5,A66G U102A,0.89
6,A67U A110G,0.25
7,A64U U130C,1.12
8,A64U A67G,1.32
9,A67G A82C,0.13
10,A67G A82G,0.6
11,A68G U102A,0.85
12,A67G A118C,0.76
13,A64G U70A,0.97
14,A64U A89G,1.6
15,A64U G75A,0.1
16,A68C A78G,0.24
17,A66C U100C,1.6
18,A66U U108C,0.02
19,A67G G74U,0.24
20,A67U A95G,2.49
21,G65A A117U,0.6
22,G65A A117G,0.36
23,A67U A94G,1.22
24,A64G A96U,0.91

row,Variant,self-cleavage
1,A64G A96G,1.92
2,A66U U70A,0.62
3,A66G U70C,0.75
4,A66G G137A,2.07
5,A66G U87A,1.15
6,A66G U87C,0.77
7,A64U G79U,0.17
8,G65A A116G,0.45
9,A64U A117U,1.07
10,A67G U124C,0.87
11,A67G U122G,2.16
12,A68G A125G,0.48
13,A66U A67G,0.98
14,A68C C88G,1.63
15,A68G,0.98
16,A68C,1.73
17,A68G C121U,0.29
18,A68G U70C,0.51
19,A67G G83A,2.38
20,A64G A98G,0.59
21,A67U U127C,1.01
22,A67U A134G,1.09
23,G65A A110C,0.19
24,A64G G138A,1.9

row,Variant,self-cleavage
1,A66G U132C,0.6
2,A68G C85U,1.49
3,A64G U133C,1.5
4,A64G U133A,1.52
5,A64G U133G,1.05
6,A67U U120A,2.17
7,A67U U120C,1.13
8,G65A A126U,0.76
9,G65A A126G,1.12
10,A64U U70C,1.06
11,A67G A68U,1.13
12,A66G A110U,0.78
13,A66G A116U,0.7
14,A64G U102A,0.68
15,A66U A140G,2.51
16,A66U C113A,0
17,A64U A135G,1.22
18,A64G A91C,1.76
19,A68G C71A,0.6
20,A66G G138A,1.26
21,A68G U103G,0.04
22,A67G G84U,0.35
23,A67C A125G,0.85
24,A68G G123A,1.45

row,Variant,self-cleavage
1,A68G U87C,1.12
2,A64U A68G,2.16
3,A68G G99A,0.57
4,A66G A86C,1.45
5,A66G A86G,1.16
6,A66U U122G,2.33
7,A66G A129U,1.47
8,A64U A126U,1.2
9,A67G A126G,1.21
10,A67G G104A,0.08
11,A68G U100A,0.24
12,A68G U100C,1.42
13,A64U A78G,0.47
14,A64U A96C,1.28
15,A67G A89U,1.53
16,A67G A89C,1.63
17,A64G U131C,1.2
18,A64G U100C,1.22
19,A64G U100A,0.51
20,A67U U131G,1.68
21,A67U U131C,2.18
22,A66U A135U,0.74
23,A66U A135G,1.83
24,A66G U120C,1.71

row,Variant,self-cleavage
1,A68G A86U,1.51
2,A68G A86G,1.41
3,A64G A89G,1.49
4,A64G A89C,0.64
5,A67G U70G,0.68
6,A67G U70A,0.72
7,A67G G138A,0.97
8,A66C U132C,1.6
9,A66G A134G,1.66
10,A66G A134C,1.71
11,A67U G106C,0.01
12,A64U U132C,1.49
13,A64G U122A,0.95
14,A64G U122C,1.81
15,A66G U97C,1.98
16,A66G U97A,2.11
17,A64G A118U,0.97
18,A64G A118G,0.89
19,A66U U72A,0.2
20,A67C A117G,2.74
21,A68C U124C,1.22
22,A67G C107U,0.01
23,A64G U108C,0.01
24,A64G A135G,1.7

row,Variant,self-cleavage
1,A64G C112U,0.01
2,G65C A89U,2.04
3,A68C A90G,1.24
4,A64G C85U,0.98
5,A66G G104C,0.01
6,A67C A96U,2.39
7,G65A A118G,1.57
8,G65A A68G,1.57
9,A68G U120C,0.65
10,A68G U120G,1.02
11,A67U C85U,1.15
12,A68G C101G,0.08
13,A68G C101A,0.19
14,A67G U97A,1.71
15,A66G G83C,0.2
16,A66G G83U,0.61
17,A66G U100C,2.05
18,A66G U100A,0.58
19,A64G A117G,1.7
20,A64U A111G,0.04
21,A66G U127A,2.35
22,A64G G84C,0.31
23,A66G A67G,1.22
24,A66G,1.09

row,Variant,self-cleavage
1,A66U,1.36
2,A66C,1.02
3,A64G C109U,0.36
4,A64U A98U,1.98
5,A64U U100C,2.38
6,A64U U100A,0.29
7,A66U A78G,0.3
8,A66C A92G,1.21
9,A67G U120G,1.4
10,A67G U120C,0.83
11,A67G A95U,1.41
12,A66G C81G,0.18
13,A67G A114U,0.03
14,A67G A114G,0.49
15,A67U C113U,0.42
16,A66G A78G,0.31
17,A64G A95U,0.64
18,A64G A95G,1.12
19,A67G U133C,1.12
20,A64U U131C,1.58
21,A68C A82U,0.23
22,A64U A86G,1.85
23,G65A U130C,0.71
